According to the Human Domainome abundance scans (Beltran et al. 2025):
± gives the uncertainty stated by the source.

B1: Neutrophil cytosol factor 2, residues 456 to 514; numbered along this chain, P19878 (parent)
chain: LKKGSQVEALFSYEATQPEDLEFQEGDIILVLSKVNEEWLEGECKGKVGIFPKVFVEDC
B2: COUP transcription factor 1, residues 83 to 159; numbered along this chain, P10589 (parent)
chain: HIECVVCGDKSSGKHYGQFTCEGCKSFFKRSVRRNLTYTCRANRNCPIDQHHRNQCQYCRLKKCLKVGMRREAVQRG

Variants of: B1
Test: abundance fitness (aPCA) (normalised: wild type 0, dead -1); higher = more abundant; growth selection in yeast, the domain comes from the species named
Conditions: Homo sapiens

Abundance fitness, by site and new letter:
L10: M 0.116 ± 0.33; P -0.539 ± 0.27; K -0.611 ± 0.31; N -0.226 ± 0.5; T -0.528 ± 0.39; G -0.57 ± 0.29; E -0.667 ± 0.47; R 0.046 ± 0.17; V -0.609 ± 0.2; S -0.789 ± 0.29; W -0.92 ± 0.35
A9: R -0.688 ± 0.23; I -0.533 ± 0.33; L -0.471 ± 0.17; N -0.537 ± 0.42; W -0.432 ± 0.29; E -0.361 ± 0.24; G -0.439 ± 0.2; F -0.2 ± 0.27; T -0.476 ± 0.28; S -0.726 ± 0.25; V -1.13 ± 0.43; C 0.167 ± 0.23; P 0.082 ± 0.41; M -0.532 ± 0.34
L1: Y 0.581 ± 0.32; I 0.114 ± 0.29; R 0.08 ± 0.27; N -0.024 ± 0.49; F 0.593 ± 0.23; S -0.217 ± 0.21; V -0.294 ± 0.34; M 0.035 ± 0.27; K -0.529 ± 0.49; W 0.161 ± 0.2; E 0.143 ± 0.28; G -0.053 ± 0.19
A15: D -0.73 ± 0.24; C -0.362 ± 0.13
E14: A 0.059 ± 0.12; I -0.304 ± 0.13; M -0.483 ± 0.33; S -0.123 ± 0.083; V 0.027 ± 0.089; W -0.168 ± 0.16; T 0.319 ± 0.093; N 0.074 ± 0.11; C -0.301 ± 0.12; K 0.217 ± 0.18; G -0.233 ± 0.11; F -0.236 ± 0.11; H 0.236 ± 0.11; Q 0.068 ± 0.33; P 0.023 ± 0.19; D -0.073 ± 0.12; L -0.231 ± 0.14; Y -0.215 ± 0.12; R 0.096 ± 0.084
K3: V -0.033 ± 0.14; P 0.347 ± 0.13; R -0.397 ± 0.22; M -0.005 ± 0.36; Y -0.479 ± 0.37; I 0.207 ± 0.19; S -0.474 ± 0.25; T -0.094 ± 0.21; D -0.366 ± 0.24; L -0.337 ± 0.14; G -0.714 ± 0.38; W -0.781 ± 0.47; F -0.153 ± 0.28; A -0.483 ± 0.23; E -0.067 ± 0.23; C 0.761 ± 0.34
E8: V 0.959 ± 0.091; S 0.048 ± 0.12; T 0.126 ± 0.25; L 0.433 ± 0.1; A 0.164 ± 0.23; N 0.524 ± 0.31; K 1.17 ± 0.17; Q 0.472 ± 0.15; G -0.093 ± 0.28; R 1.16 ± 0.095; M 0.684 ± 0.12; P -0.363 ± 0.24; I 0.744 ± 0.2; F 0.452 ± 0.17
S5: Y 0.219 ± 0.19; P -0.804 ± 0.33; F 0.011 ± 0.13; D 0.797 ± 0.15; L -0.289 ± 0.12; E 0.099 ± 0.37; I -0.299 ± 0.3; A 0.353 ± 0.16; K 0.309 ± 0.23; V -0.056 ± 0.13; G -1.17 ± 0.48; Q -0.365 ± 0.27; R -0.116 ± 0.14; M 0.216 ± 0.18; T -0.037 ± 0.23
G4: V -0.452 ± 0.17; D -0.031 ± 0.22; R -0.535 ± 0.27; P -0.208 ± 0.25; W -0.84 ± 0.41; Y -0.89 ± 0.45; C -0.371 ± 0.23; K -0.193 ± 0.45; F -0.312 ± 0.49; A -0.695 ± 0.29; I 0.575 ± 0.31; L -0.83 ± 0.21
F11: A 0.567 ± 0.18; V 0.035 ± 0.14; S -0.333 ± 0.21; K 0.153 ± 0.2; E -0.572 ± 0.41; N 0.029 ± 0.28; W -0.392 ± 0.3; R 0.145 ± 0.15; M -0.084 ± 0.24; I -0.772 ± 0.47; L -0.314 ± 0.15; T -0.347 ± 0.27; C 0.418 ± 0.14; Y -0.191 ± 0.24; G -0.176 ± 0.2
V7: L -0.633 ± 0.24; P -0.506 ± 0.27; M -0.99 ± 0.5; G -0.67 ± 0.27; A -0.662 ± 0.29; T 0.249 ± 0.18; I -0.805 ± 0.4; F -0.414 ± 0.43; S -0.287 ± 0.17; D -0.907 ± 0.49; R -0.343 ± 0.2; W -0.999 ± 0.48
K2: F 0.093 ± 0.48; G -0.307 ± 0.17; L -0.46 ± 0.2; A 0.146 ± 0.19; M -0.593 ± 0.29; V -0.337 ± 0.45; H 0.249 ± 0.3; E -0.415 ± 0.32; P 0.067 ± 0.21; W -0.109 ± 0.27; T 0.427 ± 0.26; S -0.347 ± 0.22; N 0.141 ± 0.32; R 0.002 ± 0.13
S12: H -0.44 ± 0.16; K -0.609 ± 0.3; N -0.206 ± 0.1; D -0.139 ± 0.13; E -0.937 ± 0.47; G -0.377 ± 0.15; Y -0.841 ± 0.16; P -0.257 ± 0.2; M -0.382 ± 0.22; I -0.069 ± 0.094; R -0.315 ± 0.15; C -0.595 ± 0.17; T -0.119 ± 0.11; L -0.086 ± 0.1; W -0.557 ± 0.28; V -0.816 ± 0.21
Q6: M 0.023 ± 0.15; P -0.924 ± 0.37; V 0.538 ± 0.12; R 0.028 ± 0.11; H 0.427 ± 0.25; I -0.133 ± 0.36; E -0.158 ± 0.18; W 0.367 ± 0.16; S -0.667 ± 0.27; F 0.714 ± 0.14; K 0.157 ± 0.14; L 0.437 ± 0.095; G -0.72 ± 0.27; A -0.717 ± 0.27; C -0.337 ± 0.3
Y13: R 0.458 ± 0.085; A -0.505 ± 0.21; M 0.207 ± 0.21; P -0.21 ± 0.17; S -0.487 ± 0.11; C -0.432 ± 0.19; W -0.484 ± 0.26; I -0.487 ± 0.1; L -0.573 ± 0.11; T -0.644 ± 0.14; E -0.499 ± 0.34; K -0.307 ± 0.17; D -0.646 ± 0.17; G -0.165 ± 0.11; F -0.391 ± 0.12; N -0.472 ± 0.11; H -0.104 ± 0.12

Variants of: B2
Test: as above
Conditions: Homo sapiens

Abundance fitness: each site, then its substitutions
E72: I -0.325 ± 0.085; S -0.252 ± 0.044; Y -0.177 ± 0.078; L -0.317 ± 0.044; C -0.337 ± 0.064; M -0.262 ± 0.052; D -0.002 ± 0.06; Q -0.319 ± 0.055; P -0.418 ± 0.076; G -0.258 ± 0.038; F -0.316 ± 0.078; W -0.248 ± 0.05; T -0.283 ± 0.056; A -0.237 ± 0.048
R70: L 0.07 ± 0.056; T 0.023 ± 0.048; N 0.071 ± 0.092; S 0.144 ± 0.039; Q 0.112 ± 0.053; P -0.161 ± 0.061; V 0.032 ± 0.056; Y -0.323 ± 0.12; K 0.153 ± 0.05; M 0.173 ± 0.095
R71: K 0.104 ± 0.049; T 0.02 ± 0.045; Q 0.049 ± 0.047; A 0.007 ± 0.035; N -0.034 ± 0.062; W -0.085 ± 0.045; M 0.151 ± 0.045; H -0.103 ± 0.084; Y 0.089 ± 0.062; F 0.016 ± 0.066; L -0.039 ± 0.038; V -0.019 ± 0.037; G -0.083 ± 0.034; S 0.018 ± 0.037; C -0.062 ± 0.062; P 0.023 ± 0.052; D 0.017 ± 0.056; I 0.084 ± 0.057
R76: F 0.097 ± 0.1; H 0.094 ± 0.083; T 0.025 ± 0.051; Q 0.083 ± 0.055; G 0.161 ± 0.034; S -0.048 ± 0.046; A -0.13 ± 0.045; V -0.009 ± 0.045; C 0.082 ± 0.068; Y 0.046 ± 0.075; E 0.11 ± 0.047; L 0.024 ± 0.045; P -0.197 ± 0.07; D 0.221 ± 0.066; W 0.007 ± 0.051; N 0.123 ± 0.063; M -0.047 ± 0.058
A73: I -0.239 ± 0.092; Y -0.061 ± 0.068; M -0.065 ± 0.045; L -0.04 ± 0.036; T -0.034 ± 0.048; N 0.064 ± 0.065; P -0.11 ± 0.05; S -0.02 ± 0.039; Q 0.063 ± 0.046; F 0.02 ± 0.061; R -0.275 ± 0.038; G -0.025 ± 0.031; D 0.112 ± 0.054; H 0.038 ± 0.064; V -0.052 ± 0.037; K -0.183 ± 0.056
Q75: L -0.007 ± 0.036; C -0.07 ± 0.055; A 0.125 ± 0.036; W -0.119 ± 0.044; H 0.222 ± 0.071; F -0.026 ± 0.07; M -0.114 ± 0.052; K -0.071 ± 0.052; D 0.211 ± 0.054; R -0.159 ± 0.034; I -0.077 ± 0.059; Y -0.219 ± 0.093; E 0.104 ± 0.04; S -0.023 ± 0.04; P 0.034 ± 0.058; N -0.115 ± 0.083; G 0.084 ± 0.032
G77: L -0.095 ± 0.064; C -0.096 ± 0.069; K 0.101 ± 0.14; N -0.023 ± 0.093; D 0.117 ± 0.093; I -0.042 ± 0.11; S 0.064 ± 0.052; Q 0.304 ± 0.075; H -0.004 ± 0.13; E 0.06 ± 0.1; A 0.12 ± 0.061; P -0.013 ± 0.071; W -0.23 ± 0.074; F -0.317 ± 0.18; M -0.017 ± 0.12; R -0.058 ± 0.046; V -0.041 ± 0.043; Y -0.257 ± 0.14; T -0.016 ± 0.07
V74: Q -0.063 ± 0.048; C -0.032 ± 0.052; I -0.292 ± 0.072; A 0.028 ± 0.041; P -0.151 ± 0.076; H -0.104 ± 0.084; K -0.264 ± 0.059; S -0.199 ± 0.044; F -0.175 ± 0.06; W -0.3 ± 0.057; M -0.185 ± 0.055; Y -0.353 ± 0.079; E -0.004 ± 0.042; T -0.112 ± 0.053; G -0.102 ± 0.034; L -0.224 ± 0.04; D -0.065 ± 0.056; N -0.061 ± 0.065; R -0.449 ± 0.044
